assay: soluble on expression in E. coli; label from the status in PepcDB or PDB records

Row | Sequence | soluble on expression in E. coli
1 | MGSDKIHHHHHHAADPVVVPANMEPLTIEGNRFVTLCIMIRTTPWEVSRDVKLHPRDEVDWHTLEGVRALREAFATNNPNGRLTWGFTMNALEDGRKNYREIRDYVVECQKKYGDEVTYFPGYFPAMYLPRERVNREMSEAIEIISKMVGNGYRPQSIMGGFLSADNLRYLAEKENIHVAHAVIWSQHNIDGGGADGSPSYPFYPSTEHFCKPAQGKSDFIDCVNLDGWTMDFICARRSGQTGHGIDGYNSRRGVGPIETYKGWGLDLGHREVMHTEAIHFDKGLELNGFGWVANIWEAQMVHEFGKDLICDAMKMWVTGTKERWPDTHFVTFGEFGELWRKQYKSNDDWNYRFVERGSGLGDSYNNLEIKWFMNKEFRLALLRDWHTKNSPAYVIDFTRYDLQAHEPADPSPEKPAKDWSLINKINQKALRPQDKPVLIDKLEKEDQDLIRKYYPELLK | not soluble
2 | MGNTDKLMNQIFELKFTSKSLQRQARKCEKEERSEKLKVKKAIEKGNMDGARIYAENAIRKRSEQMNYLRLSSRLDAVVARLDTQAKMATITKSMTNIVKSLESSLTTGNLQKMSETMDSFEKQFVNMEVQAEFMDNAMAGSTSLSTPEGEVNSLMQQVADDYGLEVSVGLPQPAGHAIPTKTEEKVEEDDLTRRLAELKARG | not soluble
3 | SSNAKIDQLSSDVQTLNAKVDQASNDANAARSDAQAAKDDAARANQRLDNMATKYR | soluble
4 | MTHSKDKKSHAFKGIGEKLNPTIYQVRFMKLDEPIRFESFPELKELGDWLSTSTHMWSCHSTMYKYNREEFEKKFLEITKLTADHVLISTGGVGFNFMSPGWRNSL | not soluble
5 | MGSDKIHHHHHHMETFHLTRNEMATLLLSLRGWNTKKPLGILQEAWAKSHKKDIESGQSVTAFITTALSPIFEKLIKIDDTDVGFSLNEIVALGNQIENTSFSVTAMQNWVKRDIKEMIGSPQKGKKYSIEQAALLFIVEDLKTALDFESIRKLLRLIVNDPADRSDDLINPVHLYGAYSSLFEELNQGNCLQLNATDTIHTIENIVKERADKIASKFDQVNNEQREAIRNAIIIATLSVHTAYVQMLAKRYVTATLFLQNLDVKP | not soluble
6 | MTTTTLTVPFRFDVVGSLLRPASLKKAHEQLAAGTITRDQELEIQHTEIKRVVAEQVKLGLKAVTDGEFSRSWWHLDFLWGLTGVGKYDYHQSYKFKGDHTRTDNAELIGKVAYNPDHPFFAAFEYLQSIVPAGVLAKQTIPSPTMLFRDNRSDNWTKFYDSWDAYLNDLAQAYHDTIQHFYDLGCRYIQLDDTTWAFLISKLNDPEADHAAYTKWATDAVTVINAALADLPSDLTVTTHICRGNFKSTYLFSGSYDVVAPYLGQLNYDGLFLEYDNERAGGFEALDQIWNHDDHKRIVLGLVTSKFPELEKTTVIKERVQAATTKVPLRNLALSTQCGFASTEEGNQLTEAQQWAKLALVIGTAKEVWSEALEHHHHHH | not soluble
7 | MQNYSVSVTSDRPAPFQQITIPLADGTVLHARLWLPQTPLADRVPLVLEWIPYRQSDGTALADSMMHGYFAEQGIAAARVDIRGSGNSDGLLHDEYLKQEQDDACEVIAWFARQDWCNGNVGLIGISWGGFAGLQIAARRPPALKCIITACSTDNRYTDDVHYMGGALLSDGMQWGSGLFAQLGRPADPKHVGDRWREMWMNRLEGIKEPPLATWMQHTTYDDFWKHGSVCEDYDEIQCAVWAVGGWVDGYTDPILRLMEKLSVPKKALIGPWTHMYPTWGQPGPQIGFLQEAMRWWRHWLMDEDTGIMDEPQLTLWLGKDPKPDTRAPDIGGRWIGLP | not soluble
8 | MSAPTMRSTSILTEHLGYPPISLVDDIINAVNEIMYKCTAAMEKYLLSKSKIGEEDYGEEIKSGVAKLESLLENSVDKNFDKLELYVLRNVLRIPEEYLDANVFRLENQKDLVIVDENELKKSEEKLREKVNDVELAFKKNEMLLKRVTKVKRLLFTIRGFKQKLNELLKCKDDVQLQKILESLKPIDDTMTLLTDSLRKLYVDSESTSSTEEVEALLQRLKTNGKQNNKDFRTRYIDIRTNNVLRKLGLLGDKEDEKQSAKPDARTQAGDIVSIDIEEPQLDLLDDVL | soluble
9 | MGGSHHHHHHGMASALAAKVDLSTSTDWKEAKSFLKGLSDKQREEHYFCKDFVRLKKIPTWKEMAKGVAVKVEEPRYKKDKQLNEKISLLRSDITKLEVDAIVNAANSSLLGGGGVDGCIHRAAGPLLTDECRTLQSCKTGKAKITGGYRLPAKYVIHTVGPIAYGEPSASQAAELRSCYLSSLDLLLEHRLRSVAFPCISTGVFGYPCEAAAEIVLATLREWLEQHKDKVDRLIICVFLEKDEDIYRSRLPHYFPVA | not soluble
10 | MHHHHHHSSGVDLGTENLYFQSGVVTHEQFKAALRMVVDQGDPRLLLDSYVKIGEGSTGIVCLAREKHSGRQVAVKMMDLRKQQRRELLFNEVVIMRDYQHFNVVEMYKSYLVGEELWVLMEFLQGGALTDIVSQVRLNEEQIATVCEAVLQALAYLHAQGVIHRDIKSDSILLTLDGRVKLSDFGFCAQISKDVPKRKSLVGTPYWMAPEVISRSLYATEVDIWSLGIMVIEMVDGEPPYFSDSPVQAMKRLRDSPPPKLKNSHKVSPVLRDFLERMLVRDPQERATAQELLDHPFLLQTGLPECLVPLIQLYRKQTSTC | soluble
11 | MRKEVEQLALMGAMPDEADERITAALVDEYADLLGKIVKPVTLDEAHILIKLFPPTALYGIEWTLLHLIESVYSEIKSLEYRELINECNSTEFKKMLVQRLNNSQQKKITNEAG | not soluble
12 | QIYSARYSGVDVYEFIHSTGSIMKRKKDDWVNATHILKAANFAKAKRTRILEKEVLKETHEKVQGGFGKYQGTWVPLNIAKQLAEKFSVYDQLKPLFDF | soluble
13 | MTKITYKVASEHPFPADAAAAAASLAAYEALDDVTKARVDQMVDWIMKNCLWQFHSRAWDRKRQNEGILGIAAKLLAGEPFTPETPEDRCYWVDSVTLQRAYLATCPWLATMSKGDIRALMKELHARVDYLTVTGSLNEELTDLHYLEHHHHHH | not soluble
14 | MSLLSYRHGFHAGNQADVFKHSALFSFLKVYTQKQKPFTAFDLNAGSASYNLLSEWSLKTGEAEEGIIRFLDLYKKEKLPLPIPEGFKAYLDFCLKNYDENSSYAGSPEIIRSFLQKESNLILCDLHSAEAEKLKELYKRVENVHVHKRDCYEAVRALTPPLPIRGFALFDPSYEVDSDYTAIAESVEKVCKKWPIGIFIIWYPILNHKTEECRNLKDRISKAMNNKVLNIEVKHFSNKIDSENEYGLQGSGLLITNPPWGLEEKLKEICEYVEKVSAGLDEGHHHHHH | soluble
15 | MKVLFVCSGGMSSAIVVNALKKEAEKKGVNMEVHAIGTSEVEEEVKNGWDVVMVAPQVRHRFDSVKKFAEEESIPCGIIPPQAYTPLGGPTLLKTVNDLIR | not soluble
16 | MPRPSLRRGEETSGARSLHEIAPPAEKAVRKPLNLLPFRKDTPMTKDSYFHKSRAGVAGAPLFVLLHGTGGDENQFFDFGARLLPQATILSPVGDVSEHGAARFFRRTGEGVYDMVDLERATGKMADFIKANREHYQAGPVIGLGFSNGANILANVLIEQPELFDAAVLMHPLIPFEPKISPAKPTRRVLITAGERDPICPVQLTKALEESLKAQGGTVETVWHPGGHEIRSGEIDAVRGFLAAYGG | soluble
17 | MKKQSCSHTTEDVPFPQANRRKFLQLAALGSSIGLFSVVSGISEARAEKKAGTLLLSCMDYRLMDEIERYMLRRGLYHNYDHIVLAGASLGAVTDKYPAWSRTFWDHLDLAVNLHEIHTVMVMDHRDCGAYKILLGEDYSKDTDRETAEHTIKLTQLKDMINKKYPKIEVETLLMGLNGEVEAIPTAVAKQG | not soluble
18 | MTEKEKMLAEKWYDANFDQYLINERARAKDICFELNHTRPSATNKRKELIDQLFQTTTDNVSISIPFDTDYGWNVKLGKNVYVNTNCYFMDGGQITIGDNVFIGPNCGFYTATHPLNFHHRNEGFEKAGPIHIGSNTWFGGHVAVLPGVTIGEGSVIGAGSVVTKDIPPHSLAVGNPCKVVRKIDNDLPSETLNDETIK | soluble

Reference: the DeepSol protein solubility set
